Ends that are not written are not given here.
T1: full length human medin (50 aa) (human)
T1 construct: Synthetic peptide (American Peptide, Cat # 366587 in the Western blot); Monomer and multimer/oligomer bands seen in Western blot; also called medin peptide; full-length human medin peptide
T1 peptide: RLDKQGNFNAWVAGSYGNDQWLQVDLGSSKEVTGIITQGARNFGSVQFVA

T2: human C-terminal medin peptide (human, also: conjugated to OVA in the ELISA)
T2 construct: also called human c-terminal peptide; human C-terminal peptide-OVA
T2 peptide: CGGSVQFVA

T3: mouse C-terminal medin peptide (mouse, also: conjugated to OVA in the ELISA)
T3 construct: also called mouse c-terminal peptide; mouse C-terminal peptide-OVA
T3 peptide: CGGHIQYVA

T4: human lactadherin polypeptide (Sino Biological) (human, UniProt Q08431 24-387)
T4 construct: Bought protein; also called MFG-E8; synthetic lactadherin polypeptide
T4 sequence (looked up): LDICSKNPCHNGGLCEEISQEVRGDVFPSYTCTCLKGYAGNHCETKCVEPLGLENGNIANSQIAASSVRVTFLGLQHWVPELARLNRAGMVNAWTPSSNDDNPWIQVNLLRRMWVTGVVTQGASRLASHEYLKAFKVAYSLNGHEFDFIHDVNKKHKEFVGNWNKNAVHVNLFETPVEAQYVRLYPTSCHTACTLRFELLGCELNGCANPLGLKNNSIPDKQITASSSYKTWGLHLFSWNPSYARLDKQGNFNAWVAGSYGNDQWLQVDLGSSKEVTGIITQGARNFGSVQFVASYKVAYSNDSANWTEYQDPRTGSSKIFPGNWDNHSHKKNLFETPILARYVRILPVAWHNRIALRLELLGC

B1: mouse monoclonal antibody 18G1 (antibody, V domains shown)
VH: EVQLVESGGGLVKPGGSLKLSCAASGFTFSSYAMSWVRQTPEKRLEWVAGISSGDYYTYYPDTVKGRFTISRDNARNTLYLQMRSLRSEDTAMYYCVRGRGNTGPRVGYWGQGTSVTVSS
VL: DIVMTQSQKFMSTSVGDRVSVTCKASQNVGTNVAWYQQKPGQSPKALIYSASYRYSGVPDRFTGSGSGTDFTLTISNVQSEDLAEYFCQQYNSFPLTFGAGTKLELK
notes: Mouse hybridoma IgG raised against the human C-terminal medin peptide; also called m18G1; PRT18G1
B2: mouse monoclonal antibody 6B3 (antibody, V domains shown)
VH: QVTLKESGPGILQPSQTLSLTCSFSGFSLSTSDMGVGWIRQPSGKGLEWLAHIWWNDNKYYNIALKNRLTVSKDTSNNQVFLKIASVDTADTATYYCARLVGSWFAYWGQGTLVTVSA
VL: DIQMTQTTSSLSASLGDRVTISCRASQDISNFLSWYHQKPDGTVKLLIYYTSRLHSGVPPRFSGSGSGTDYSLTISNLEQEDIATYFCQQGKTLPPTFGGGTKLEIK
notes: Mouse hybridoma IgG raised against full-length human medin; also called m6B3; PRT6B3

Key:
[1] = target: T1, full length human medin (50 aa); assay: Biacore SPR, antibody captured on anti-mouse chip, medin as analyte, global 1:1 fit
Description: Anti-mouse antibody (GE Heathcare) was immobilized on a sensor chip […] (lacking dextran chains) via amine coupling following the instructions provided in the GE Healthcare anti-mouse kit. Anti-medin monoclonal antibodies of interest were then captured on the chip at a level that ensured a maximum binding of analyte at 30-50 RU. Various concentrations of analyte, full-length human medin (50 aa, FIGS. 1A and B) were passed over the captured ligand at 30 ul/min in running buffer (Hepes buffered saline+0.05% P-20, 1 mg/mL BSA) in either 2-fold or 3-fold dilutions, depending on the magnitude of the spanned concentration range. For each concentration, the reaction proceeded for a period of time needed for the higher analyte concentrations to reach equilibrium during association, as well as at least 10% of signal to decay during dissociation. At least one concentration (not the highest or lowest) was run in duplicate. […] The data were doubled referenced to both an irrelevant sensor not containing the medin antibodies and a 0 nM concentration of medin to account for the dissociation of antibodies from the anti-mouse sensor. The data was then analyzed with a global 1:1 fit using the Biacore software.

[2] = target: T1, full length human medin (50 aa); assay: direct ELISA, plate coated with full length human medin at 2.5 ug/mL, goat anti-mouse HRP, ABTS, OD 405 nm
Description: (§1) To further characterize antibodies of interest, ELISA titration curves were generated to determine antibody binding to human lactadherin (FIG. 1A, Sino Biological In.), full-length human medin peptide (50 aa, FIGS. 1A and B) or to the human or mouse C-terminal peptides (see FIG. 1B). Plates were coated with full length human medin, human C-terminal peptide-OVA, mouse C-terminal peptide-OVA and lactadherin at 2.5 ug/mL, 50 uL/well and incubated for about 1 hour at room temperature. The plates were then blocked with 1% BSA/PBS at room temperature. After about 15 minutes, plates were emptied and antibodies of interest were then added to the plates and after a 1 hour incubation at room temperature, the plates were washed with wash buffer. The detection antibody, goat anti-mouse antibody conjugated to horseradish peroxidase (Jackson ImmunoResearch) diluted 1:2,000 in 0.5% BSA/PBS/TBS-T was added to plates and incubated for 1 hour at room temperature. Finally, the plates were washed and then incubated with ABTS substrate (Thermo Scientific) for 15 minutes at room temperature to visualize signal and read at 405 nm on a microplate reader.

[3] = target: T2, human C-terminal medin peptide; assay: direct ELISA, plate coated with human C-terminal peptide-OVA at 2.5 ug/mL, goat anti-mouse HRP, ABTS, OD 405 nm
Description: as §1

[4] = target: T3, mouse C-terminal medin peptide; assay: direct ELISA, plate coated with mouse C-terminal peptide-OVA at 2.5 ug/mL, goat anti-mouse HRP, ABTS, OD 405 nm
Description: as §1

[5] = target: T4, human lactadherin polypeptide (Sino …); assay: direct ELISA, plate coated with human lactadherin at 2.5 ug/mL, goat anti-mouse HRP, ABTS, OD 405 nm
Description: as §1

Binder | Kd [1] [nM] | koff [1] [s⁻¹] | kon [1] [M⁻¹ s⁻¹] | EC50 (read off the curve) [2] [µg/mL] | EC50 (read off the curve) [3] [µg/mL] | EC50 (read off the curve) [4] [µg/mL] | EC50 (read off the curve) [5] [µg/mL] | binding result [3] | binding result [4]
B1 | 12.1 | 0.00712 | 590000 | ~0.04 | ~0.07 | ~0.05 | – | – | –
B2 | 1.04 | 0.000951 | 1.11e+06 | ~0.1 | – | – | ~0.2 | no binding (tested: 10 ug/ml) | no binding (tested: 10 ug/ml)

Source: patent publication US20170121397A1 (PROTHENA BIOSCIENCES, published 2017)
